Laboratory results taken from PMC9313494 (2022).

Biological target: Lys-Nle peptide (norleucine (Nle) residues (Nle12 named); D-residues (D-Lys1, D-Lys8 named); terminal thiol group)
Experiment: SPR

koff: 0.00973 s⁻¹
B1: bone morphogenetic protein-2 (BMP-2) (ligand)
chain: QAKHKQRKRLKSSCKRHPLYVDFSDVGWNDWIVAPPGYHAFYCHGECPFPLADHLNSTNHAIVQTLVNSVNSKIPKACCVPTELSAISMLYLDENEKVVLKNYQDMVVEGCGCR
